What all share (assay): ELISA
Experiment [1] addresses microtubules / purified porcine brain tubulin (porcine).
Experiment [2] has the same target. The source holds these as a separate data set.
The target in experiment [3] is GST-PEX14-NTD (human) (UniProt O75381).

Like-named read-outs stand apart in the source and are kept apart here. A value given as a limit tells only on which side of the number the result lay.

Sequence of GST-PEX14-NTD (human) (O75381 1-80): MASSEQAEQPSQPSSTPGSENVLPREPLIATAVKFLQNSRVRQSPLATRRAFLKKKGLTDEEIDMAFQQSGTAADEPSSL

“GST-PEX14-NTD (from UniProt O75381 1-80) (domain or fragment)”: the Kd in experiment [1] is 0.7 to 2.3 nM; in experiment [2], 2.1 nM. On to “His-PEX14-NTD (from UniProt O75381 1-80) (domain or fragment)”, for which the fold weaker affinity than GST-PEX14-NTD/MT in experiment [2] was above 100 fold. “full-length His6-TEV-PEX5S (from UniProt P50542-2 1-602) (natural protein)” showed an IC50 in experiment [3] of 1200 nM.

On to “monomeric His-tagged Kif5B kinesin motor domain (domain or fragment)”, for which the Kd in experiment [2] worked out at 56.6 nM.

These data come from paper doi:10.1101/2020.07.23.218024.
